Laboratory results published in the Human Domainome abundance scans (Beltran et al. 2025).

B1: POU domain, class 4, transcription factor 3, residues 185 to 256; numbered along this chain, Q15319 (parent)
chain: RELEAFAERFKQRRIKLGVTQADVGAALANLKIPGVGSLSQSTICRFESLTLSHNNMIALKPVLQAWLEEAE

Variants of: B1
Assay: abundance fitness (aPCA) (normalised: wild type 0, dead -1); higher = more abundant; growth selection in yeast, the domain comes from the species named
Details: Homo sapiens

Abundance fitness, by site and new letter:
K32: T -0.088; D -0.076; M -0.048; H -0.113; L -0.146; N 0.004; W -0.162; F -0.174; R -0.039; S -0.031; P -0.158; G -0.169; Q -0.175; Y -0.12; I -0.049; V -0.009; E 0.034; A -0.056
T51: H -0.201; L -0.13; R 0.028; F -0.578; C -0.121; S 0.056; Q -0.074; A -0.041; W -0.406; K 0.111; E -0.146; M 0.096; G -0.174; V -0.112; P -1.19
L39: S -0.109; V 0.034; F -0.687; G -0.912; W -0.596; D -0.304; R -0.606; P 0.054; A -0.053
M57: G -0.634; A -0.173
I44: V 0.08
A29: G -0.022; I -0.258; M -0.119; C 0.031; S -0.09; H -0.083; N -0.053; D -0.25; R -0.114; Q 0.123; F -0.086; Y -0.305; E 0.006; W -0.181; L -0.21; V -0.2; K 0.023
S49: G -0.138; Q -0.027; F -0.515; W -0.884; P -0.957; C -0.127; H -0.033; R -0.136; V -0.718; K -0.039; Y -0.209; E 0.102; A 0.016; N -0.005; T 0.037; M -0.117; D 0.067
L31: T -0.094; M -0.284; W -0.008; D 0; E 0.143; N -0.565; S -0.094; F -0.034; Y -0.228; V 0.086; A 0.204; C 0.352; Q -0.202; G -0.59
S38: F 0.057; C -0.27; N 0.022; L -0.031; H -0.018; W -0.389; Q 0.029; V 0.065; M -0.006; I -0.017; R -0.052; T 0.017; Y -0.055; P 0.055; A -0.346
G37: P -0.055; S -0.001; V -0.039; E 0.038; Q 0.003; D -0.093; R -0.063; M -0.153; A -0.127; L -0.172; Y 0.024; K -0.018; H 0.011; W -0.669
H54: P 0.102; Y -0.027
L28: R -1.06; D -0.716; S -0.688; V -0.126; G -0.813; M -0.095; Y -0.49; F -0.239; E -0.985; N -0.623; K -0.915; C -0.443
V36: P -0.398; S -0.077; N -0.234; T -0.3; Q -0.261; M 0.044; R -0.332; Y -0.121; I 0.117; G -0.242; A -0.089; W -0.091; F -0.043; H -0.072; E -0.055; L -0.011
T43: N -0.746; P -0.836; A -0.148; R -0.607; E -0.235; I -0.089; M -0.053; V -0.031; K -0.153; Q -0.105; L -0.012; F -0.425; W -0.382; H -0.296; C -0.333; G -0.65; S -0.2; D -0.29
N30: G -0.058; Q -0.022; E -0.083; T -0.005; H -0.051; I -0.361; D -0.184; W 0.007; M -0.239; V -0.177; F -0.276; L -0.279; R -0.148; S -0.186; P -0.267; C -0.261
I33: T -0.197; S -0.764; N -0.341; Y -0.105; L 0.062; V -0.515; K -0.391; P -0.139; M -0.283; F -0.223
C45: F -0.001; W -0.234; I 0.104; H 0.053; T 0.012; L -0.06; K 0.109; Y -0.01; M -0.048; P -0.25; Q 0.003; S -0.042; N -0.007
A27: T 0.205; G -0.196; V -0.139; E -0.123; M -0.176; K -0.126; D -0.431; F -0.283; Y -0.084; L -0.233; W -0.202; R -0.384
P34: I -0.419; R -0.353; Q -0.458; A 0.029; Y -0.379; T -0.058; F -0.474; G -0.313; L -0.386; W -0.571; C -0.137; S -0.124; V -0.271; M -0.141; K -0.433
L50: P -1.02; W -0.717; R 0.053; G 0.043; S 0.041; K -0.012; E -0.154; D -0.139; A 0.068; Q 0.124; T -0.101
G35: F -0.231; P -0.285; I -0.569; Q -0.076; S -0.193; K -0.291; Y -0.26; H -0.038; N -0.121; M -0.099
S42: P -0.428; T -0.116; N 0.06; F -0.225; I -0.363; Q 0.017; K 0.046; M -0.1
S40: A -0.222; R -0.175; I -0.664; V -0.354; N -0.183; P -0.154; D 0.037; W -0.42; F -0.468; H -0.013; Q -0.287; L -0.488; M -0.29; C -0.066; Y -0.422
R46: L -0.184; P -1.17; M -0.184; N 0.094; E 0.025; H -0.056; I -0.806; K 0.055; Y -0.106; G 0.125; W -0.334; D 0.096; A 0.031; S 0.024; F -0.519; Q -0.011; T -0.661
F47: Q -0.875; S -0.747; N -1.09; V -0.718; I -0.836; P -1.02; G -1.01; W -0.508; A -0.866; T -0.94; M -0.543; C -0.982; H -1.06
S53: E -0.065; H -0.174; T -0.208; A 0.025; K -0.222; G -0.061; P 0.042; R -0.229; Q -0.403
N56: K -0.109; L 0.105; T -0.588; I -0.157; D -0.355; C -0.036; Y -0.096; G -0.035; S 0.089; F -0.628; W 0.101
N55: Y -0.161; S -0.061
L52: P -0.984; M -0.55
